Biological target: T1, full-length HA-epitope tagged huBUB1 (plasmid p396-1) (human, UniProt O43683 1-1085)
T1 construct: In vitro translated; precipitated with anti-HA monoclonal antibody and Protein G beads; also called HA-huBUB1; HA-BUB1; not shown: triple HA tag
Test: anti-HA co-immunoprecipitation of in vitro translated proteins, BUB3 present
Source text: ³⁵S-methionine-labeled proteins and polypeptides were then produced from these plasmids by coupled in vitro transcription/translation reactions (IVT), as described above. IVT reactions were immunoprecipitated (IP), using either anti-FLAG agarose beads (Kodak IBI) or anti-HA monoclonal antibody combined with Protein G beads (BMB). Beads were extensively washed as previously described to ensure the removal of non-specifically-associated proteins, including relatively stringent washes in 2 M NaCl buffer. Bound proteins were released from beads by heating samples in SDS-sample buffer and were analyzed on 10-20% SDS-PAGE gels. Aliquots of initial ³⁵S-labeled translation reactions were analyzed as well.

binding result: no binding
B1: wild-type huBUB1 (full-length, plasmid p385-1) (enzyme)
chain: MDTPENVLQMLEAHMQSYKGNDPLGEWERYIQWVEENFPENKEYLITLLEHLMKEFLDKKKYHNDPRFISYCLKFAEYNSDLHQFFEFLYNHGIGTLSSPLYIAWAGHLEAQGELQHASAVLQRGIQNQAEPREFLQQQYRLFQTRLTETHLPAQARTSEPLHNVQVLNQMITSKSNPGNNMACISKNQGSELSGVISSACDKESNMERRVITISKSEYSVHSSLASKVDVEQVVMYCKEKLIRGESEFSFEELRAQKYNQRRKHEQWVNEDRHYMKRKEANAFEEQLLKQKMDELHKKLHQVVETSHEDLPASQERSEVNPARMGPSVGSQQELRAPCLPVTYQQTPVNMEKNPREAPPVVPPLANAISAALVSPATSQSIAPPVPLKAQTVTDSMFAVASKDAGCVNKSTHEFKPQSGAEIKEGCETHKVANTSSFHTTPNTSLGMVQATPSKVQPSPTVHTKEALGFIMNMFQAPTLPDISDDKDEWQSLDQNEDAFEAQFQKNVRSSGAWGVNKIISSLSSAFHVFEDGNKENYGLPQPKNKPTGARTFGERSVSRLPSKPKEEVPHAEEFLDDSTVWGIRCNKTLAPSPKSPGDFTSAAQLASTPFHKLPVESVHILEDKENVVAKQCTQATLDSCEENMVVPSRDGKFSPIQEKSPKQALSSHMYSASLLRLSQPAAGGVLTCEAELGVEACRLTDTDAAIAEDPPDAIAGLQAEWMQMSSLGTVDAPNFIVGNPWDDKLIFKLLSGLSKPVSSYPNTFEWQCKLPAIKPKTEFQLGSKLVYVHHLLGEGAFAQVYEATQGDLNDAKNKQKFVLKVQKPANPWEFYIGTQLMERLKPSMQHMFMKFYSAHLFQNGSVLVGELYSYGTLLNAINLYKNTPEKVMPQGLVISFAMRMLYMIEQVHDCEIIHGDIKPDNFILGNGFLEQDDEDDLSAGLALIDLGQSIDMKLFPKGTIFTAKCETSGFQCVEMLSNKPWNYQIDYFGVAATVYCMLFGTYMKVKNEGGECKPEGLFRRLPHLDMWNEFFHVMLNIPDCHHLPSLDLLRQKLKKVFQQHYTNKIRALRNRLIVLLLECKRSRK
notes: Full-length, untagged protein made in vitro (T7 TnT kit), 35S-methionine-labeled or unlabeled; also called full-length huBUB1; untagged huBUB1

Reference: patent US20020123042A1 (CHIRON, published 2002)
